Reference: article PMC11740425

Legend:
[1] = biological target: TCR1 with the T30Q mutation in CDR-1A (human | mouse); test: flow cytometry on cells
[2] = biological target: TCR1 with the T30Q mutation in CDR-1A (human | mouse)

Question: For “KRAS^G12D peptide presented by HLA-A*11:01 (KRAS^G12D tetramer) (from UniProt P61769 21-119; P01116 7-16) (peptide-MHC)”, which pMut-HLA binding positivity rate [1] is on record?
Answer: 60%

Question: What about the EC50 (functional avidity) of TCR Jurkat cells for KRAS^G12D peptide [2] of the same substance?
Answer: 53 nM
